Each block holds one binder with its values, some of them ahead of it.
Legend:
human CD137 on cells = human CD137 on cells (human, UniProt Q07011 24-255); test: cell-based or functional assay
human 5T4 on cells [1] = molecular target: T1, human 5T4 on cells (human, UniProt Q13641 32-420); test: flow cytometry, HCT-116 cells, streptavidin-PE, normalized MFI of 2 pooled experiments; HCT-116 cells
T1 construct: also called TPBG; hu5T4
T1 sequence: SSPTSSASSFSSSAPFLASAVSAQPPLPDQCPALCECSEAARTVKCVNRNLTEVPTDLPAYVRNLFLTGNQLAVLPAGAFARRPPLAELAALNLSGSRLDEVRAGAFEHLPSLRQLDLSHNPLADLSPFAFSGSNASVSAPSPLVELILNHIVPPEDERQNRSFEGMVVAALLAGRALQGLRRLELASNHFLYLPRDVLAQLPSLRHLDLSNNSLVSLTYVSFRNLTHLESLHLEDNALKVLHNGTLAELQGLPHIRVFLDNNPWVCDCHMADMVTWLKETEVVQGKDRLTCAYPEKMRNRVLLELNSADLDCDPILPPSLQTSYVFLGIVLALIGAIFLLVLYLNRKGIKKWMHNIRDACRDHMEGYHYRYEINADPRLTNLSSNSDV
Experimental: Prior to the FACS staining, all cell lines were characterized for their 5T4 expression levels using a receptor density kit (Quantum Simply Cellular, anti-human IgG, Bangs Laboratories, Inc). Adherent cell lines were cultured according to their supplier's instructions and were harvested from their cell culture flasks using Trypsin/EDTA, counted in R10 medium in a Burker chamber, and diluted in FACS buffer (PBS+0.5% BSA, 0.05% NaN₃) to a concentration of 4×10⁶ cells/mL. 50 μL (0.20×10⁶) of cell solution was added to a 96-well FACS staining plate (Falcon #351190). Cells were incubated for 20 min in 4° C. with 50 μL of the biotinylated ALG.APV-210 (2× final concentration). The antibodies were added in a serial dilution starting at 20 μg/mL titrating down in a 12 step ½ dilution down to 0.010 μg/mL. Following 2× washing with FACS buffer, cells were incubated for 30 min in 4° C. with 100 μL of a secondary antibody (streptavidin-PE, BD #554061, diluted 1/500). […] Cells were analysed for ALG.APV-210 binding using flow cytometry (FACSVerse) by gating on single cells. MFI values (secondary antibody only subtracted) from 1 out of 2 independent experiments, as well as normalized data and EC₅₀-values of pooled data from 2 experiments were determined and plotted using GraphPad Prism 7, non-linear regression log (agonist) vs. normalized response—variable slope.

[2] = molecular target: T2, cynomolgus CD137 on cells (cynomolgus macaque, UniProt A9YYE7 24-254); test: flow cytometry, CD8 T cells gated from CD3-stimulated cynomolgus PBMC, biotinylated antibody + streptavidin-APC, exp 1, n=3 donors
T2 construct: whole, on cells; also called CHO-K1/cynomolgus CD137 cell line; cynomolgus monkey CD137 on CD3-stimulated primary CD8 T cells
T2 sequence (A9YYE7 entry or part of it): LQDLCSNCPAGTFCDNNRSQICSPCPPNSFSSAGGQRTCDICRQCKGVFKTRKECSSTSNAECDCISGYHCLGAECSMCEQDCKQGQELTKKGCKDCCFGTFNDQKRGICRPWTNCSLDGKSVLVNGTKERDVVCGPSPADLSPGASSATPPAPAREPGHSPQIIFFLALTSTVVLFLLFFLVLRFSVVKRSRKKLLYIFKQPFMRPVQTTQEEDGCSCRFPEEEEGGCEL
Experimental: Following 48 h of incubation with or without CD3, human and cynomolgus PBMC were harvested, pooled, recounted and diluted in FACS buffer (PBS+0.5% BSA, 0.05% NaN₃) to a concentration of 5×10⁶ cells/mL. 50 μL (0.25×10⁶ cells) of cell solution was added to a 96-well FACS staining plate (Falcon #351190). Following 10 min of Fc-blocking in RT using Beriglobin (hIgG, 200 μg/mL), cells were washed in FACS buffer and then incubated for 1 h in 4° C. with 100 μL of the biotinylated ALG.APV-210 or negative control. […] Cells were analysed for ALG.APV-210 binding using flow cytometry by gating on viable, single cells expressing CD3 and CD8. MFI values (FMO subtracted) from 2 independent experiments as well as normalized pooled data from 2 experiments and EC₅₀-values were determined and plotted using GraphPad Prism 7, non-linear regression log (agonist) vs. normalized response—variable slope, n=6 donors/group.
In ELISA tests, the binding of biotinylated ALG.APV-210 to CD137 was similar to that of the non-biotinylated ALG.APV-210 (0.6 nM vs. 0.7 nM). The binding (EC₅₀) of the biotinylated ALG.APV-210 to its immunomodulatory target CD137 when expressed on activated primary human and cynomolgus CD8 T cells from CD3 stimulated PBMC was assessed and compared between the two species as well as to unstimulated cells. […]

human 5T4 on cells [3] = molecular target: T1, human 5T4 on cells; test: flow cytometry, CHO-K1 cells expressing human 5T4, labelled anti-human IgG secondary, MFI (mean)
Experimental: Binding studies were performed by standard flow cytometry-based staining procedures two cell lines expressing 5T4:CHO-K1 cells (obtained from Alligator) transduced with human or cynomolgus macaque 5T4 and SKOV-3 human ovarian adenocarcinoma cells which express (human) 5T4. All labeling and washes were performed in U-bottom 96-well plates in saline buffer with 0.1% BSA and 2 mM EDTA. Cell were plated at approximately 100,000 cells per well and incubated with a range of 100 nM to 0.05 nM concentrations of test molecules in […], for 30 minutes on ice. Cells were washed three times then incubated for another 30 min on ice with fluorescently-labeled secondary polyclonal antibody, F(ab′)² goat anti-human IgG (Jackson ImmunoResearch Laboratories). The cells were then washed twice and the samples acquired in a BD LSRII or a Symphony A3 flow cytometer. The sample files were analyzed using FlowJo software; the mean fluorescence intensity (MFI-mean) or median fluorescence intensity (MFI-median) of the live population of cells in each well was calculated after gating on live cells (forward vs side scatter). Nonlinear regression analysis to determine EC₅₀ values was performed in GraphPad Prism 6® graphing and statistics software.

human CD137 on cells, sequence (Q07011 24-255 limits assumed): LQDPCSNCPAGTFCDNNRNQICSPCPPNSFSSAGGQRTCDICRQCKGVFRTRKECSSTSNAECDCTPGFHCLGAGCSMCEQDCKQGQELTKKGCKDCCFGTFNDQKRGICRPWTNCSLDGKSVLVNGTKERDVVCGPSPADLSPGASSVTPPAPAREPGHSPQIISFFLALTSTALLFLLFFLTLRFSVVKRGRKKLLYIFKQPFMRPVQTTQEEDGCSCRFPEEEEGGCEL

EC50 (nM), IFNγ release of human CD8 T cells on plate immobilized 5T4-Fc and anti-CD3 (human CD137 on cells): 0.2 nM
B1: ALG.APV-210 (bispecific antibody)
chain: EVQLLESGGGLVQPGGSLRLSCAASGFTFSHGSMYWVRQAPGKGLEWVSSISSGSGSTYYADSVKGRFTISHDNSKNTLYLQMNSLRAEDTAVYYCARSSYYGSYYSIDYWGQGTLVTVSSGGGGSGGGGSGGGGSGGGGSDIQMTQSPSSLSASVGDRVTITCRASQSISSYLNWYQQKPGKAPKLLIYAASSLQSGVPSRFSGSGSGTDFTLTISSLQPEDFATYYCQQYYDNLPTFGQGTKLEIKEPKSSDKTHTCPPCPAPEAAGAPSVFLFPPKPKDTLMISRTPEVTCVVVDVSHEDPEVKFNWYVDGVEVHNAKTKPREEQYNSTYRVVSVLTVLHQDWLNGKEYKCAVSNKALPAPIEKTISKAKGQPREPQVYTLPPSRDELTKNQVSLTCLVKGFYPSDIAVEWESNGQPENNYKTTPPVLDSDGSFFLYSKLTVDKSRWQQGNVFSCSVMHEALHNHYTQKSLSLSPGSGGGGSGGGGSGGGGSPSEVQLLESGGGLVQPGGSLRLSCAASGFTFSSYAMSWVRQAPGKCLEWVSAISGSGGSTYYADSVKGRFTISRDNSKNTLYLQMNSLRAEDTAVYYCARYYGGYYSAWMDYWGQGTLVTVSSGGGGSGGGGSGGGGSGGGGSDIQMTQSPSSLSASVGDRVTITCRASQSISSFLNWYQQKPGKAPKLLIYAASSLQSGVPSRFSGSGSGTDFTLTISSLQPEDSATYYCQQTYGYLHTFGCGTKLEIKR
notes: Optimized ADAPTIR scFv-Fc-scFv homodimer with stabilizing disulfide in the 1210 scFv; also called 5T4-CD137 bispecific antibody

B2: biotinylated ALG.APV-210 (bispecific antibody)
chain: B1 chain
notes: also called ALG.APV-210 (biotinylated for FACS detection)
EC50 (human 5T4 on cells [1]): 16 nM
EC50 (read off the curve) [2]: ~0.3 nM

EC50 (human 5T4 on cells [3]): 5.6 nM
Maximum MFI (human 5T4 on cells [3]): 13500
B3: ALG.APV-187 (bispecific antibody)
chain: EVQLLESGGGLVQPGGSLRLSCAASGFTFSHGSMYWVRQAPGKGLEWVSSISSGSGSTYYADSVKGRFTISHDNSKNTLYLQMNSLRAEDTAVYYCARSSYYGSYYSIDYWGQGTLVTVSSGGGGSGGGGSGGGGSGGGGSDIQMTQSPSSLSASVGDRVTITCRASQSISSYLNWYQQKPGKAPKLLIYAASSLQSGVPSRFSGSGSGTDFTLTISSLQPEDFATYYCQQYYDNLPTFGQGTKLEIKSSEPKSSDKTHTCPPCPAPEAAGAPSVFLFPPKPKDTLMISRTPEVTCVVVDVSHEDPEVKFNWYVDGVEVHNAKTKPREEQYNSTYRVVSVLTVLHQDWLNGKEYKCAVSNKALPAPIEKTISKAKGQPREPQVYTLPPSRDELTKNQVSLTCLVKGFYPSDIAVEWESNGQPENNYKTTPPVLDSDGSFFLYSKLTVDKSRWQQGNVFSCSVMHEALHNHYTQKSLSLSPGSGGGGSGGGGSGGGGSPSEVQLLESGGGLVQPGGSLRLSCAASGFTFSSYAMSWVRQAPGKCLEWVSAISGSGGSTYYADSVKGRFTISRDNSKNTLYLQMNSLRAEDTAVYYCARYYGGYYSAWMDYWGQGTLVTVSSGGGGSGGGGSGGGGSGGGGSDIQMTQSPSSLSASVGDRVTITCRASQSISSFLNWYQQKPGKAPKLLIYAASSLQSGVPSRFSGSGSGTDFTLTISSLQPEDSATYYCQQTYGYLHTFGCGTKLEIKR
notes: Optimized ADAPTIR scFv-Fc-scFv homodimer with stabilizing disulfide in the 1210 scFv

— patent US20190016816A1 (APTEVO RESEARCH AND DEVELOPMENT, published 2019)
